Reference: US20240270857A1 (CHIA TAI TIANQING PHARMACEUTICAL GROUP, published 2024)
Substitutions are numbered along the chain they refer to.

B1: hz72C1-1.2 (antibody, human IgG4 S228P, kappa)
heavy: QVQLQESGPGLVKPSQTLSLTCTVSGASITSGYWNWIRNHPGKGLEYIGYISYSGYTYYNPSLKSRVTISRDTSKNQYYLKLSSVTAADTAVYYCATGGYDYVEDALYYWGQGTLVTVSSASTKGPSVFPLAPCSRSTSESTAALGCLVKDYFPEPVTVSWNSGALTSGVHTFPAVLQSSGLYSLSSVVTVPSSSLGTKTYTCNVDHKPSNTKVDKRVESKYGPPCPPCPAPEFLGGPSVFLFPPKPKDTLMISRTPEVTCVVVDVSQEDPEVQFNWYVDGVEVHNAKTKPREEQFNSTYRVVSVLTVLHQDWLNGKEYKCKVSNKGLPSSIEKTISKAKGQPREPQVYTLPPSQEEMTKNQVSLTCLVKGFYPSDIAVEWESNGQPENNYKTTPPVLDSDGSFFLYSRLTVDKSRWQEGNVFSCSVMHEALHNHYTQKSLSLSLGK
light: DIQMTQSPSSLSASVGDRVTITCRASSNVRYMYWYQQKPGKAPKLWIYLTSNLASGVPSRFSGSGSGTSYTLTISSLQPEDFATYYCQQFTTSPYTFGQGTKLEIKRTVAAPSVFIFPPSDEQLKSGTASVVCLLNNFYPREAKVQWKVDNALQSGNSQESVTEQDSKDSTYSLSSTLTLSKADYEKHKVYACEVTHQGLSSPVTKSFNRGEC
notes: Humanized, human IgG4 / kappa
B2: hz72C1-2.3 (antibody, human IgG4 S228P, kappa)
heavy: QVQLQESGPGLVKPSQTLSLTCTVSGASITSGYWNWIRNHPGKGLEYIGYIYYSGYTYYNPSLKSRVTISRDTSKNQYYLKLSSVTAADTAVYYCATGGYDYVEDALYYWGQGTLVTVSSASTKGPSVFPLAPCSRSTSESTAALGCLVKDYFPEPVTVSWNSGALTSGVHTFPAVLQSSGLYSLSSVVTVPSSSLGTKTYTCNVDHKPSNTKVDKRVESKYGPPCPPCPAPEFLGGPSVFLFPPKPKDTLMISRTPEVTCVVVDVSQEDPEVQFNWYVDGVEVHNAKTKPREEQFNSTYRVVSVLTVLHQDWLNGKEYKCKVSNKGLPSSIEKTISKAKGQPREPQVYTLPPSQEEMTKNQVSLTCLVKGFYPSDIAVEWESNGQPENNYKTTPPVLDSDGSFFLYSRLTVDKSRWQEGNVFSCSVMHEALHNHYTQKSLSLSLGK
light: B1 light with F90Y
notes: Humanized, human IgG4 / kappa
B3: hz72C1-1.1 (antibody, human IgG4 S228P, kappa)
heavy: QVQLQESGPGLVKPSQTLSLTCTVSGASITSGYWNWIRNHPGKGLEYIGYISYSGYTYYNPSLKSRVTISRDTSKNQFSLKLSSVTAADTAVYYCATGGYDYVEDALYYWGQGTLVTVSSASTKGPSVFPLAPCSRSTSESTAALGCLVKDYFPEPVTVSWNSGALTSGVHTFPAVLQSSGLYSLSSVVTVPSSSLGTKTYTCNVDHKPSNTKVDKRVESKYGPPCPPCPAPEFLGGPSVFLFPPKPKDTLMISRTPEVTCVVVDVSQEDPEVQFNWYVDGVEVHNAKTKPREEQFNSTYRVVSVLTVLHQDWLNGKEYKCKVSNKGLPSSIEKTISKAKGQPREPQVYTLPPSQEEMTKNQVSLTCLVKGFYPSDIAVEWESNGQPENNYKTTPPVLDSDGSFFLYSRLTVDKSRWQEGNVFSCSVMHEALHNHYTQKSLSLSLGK
light: B1 light
notes: Humanized, human IgG4 / kappa; also called humanized 72C1 antibody 1.1
B4: hz72C1-2.1 (antibody, human IgG4 S228P, kappa)
heavy: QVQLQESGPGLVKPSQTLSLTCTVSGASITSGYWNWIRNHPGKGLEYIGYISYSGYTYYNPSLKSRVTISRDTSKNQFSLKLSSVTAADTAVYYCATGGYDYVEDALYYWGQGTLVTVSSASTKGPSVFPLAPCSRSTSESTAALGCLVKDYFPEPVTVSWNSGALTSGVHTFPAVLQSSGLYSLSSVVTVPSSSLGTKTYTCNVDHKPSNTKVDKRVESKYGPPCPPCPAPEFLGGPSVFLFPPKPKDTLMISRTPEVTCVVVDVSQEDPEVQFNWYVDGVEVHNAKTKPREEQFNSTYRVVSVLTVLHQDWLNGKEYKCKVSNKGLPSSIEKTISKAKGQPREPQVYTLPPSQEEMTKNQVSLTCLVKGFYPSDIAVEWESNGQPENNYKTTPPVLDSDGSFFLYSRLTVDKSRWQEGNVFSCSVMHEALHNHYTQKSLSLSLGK
light: B1 light with F90Y
notes: Humanized, human IgG4 / kappa
B5: hz72C1-2.2 (antibody, human IgG4 S228P, kappa)
heavy: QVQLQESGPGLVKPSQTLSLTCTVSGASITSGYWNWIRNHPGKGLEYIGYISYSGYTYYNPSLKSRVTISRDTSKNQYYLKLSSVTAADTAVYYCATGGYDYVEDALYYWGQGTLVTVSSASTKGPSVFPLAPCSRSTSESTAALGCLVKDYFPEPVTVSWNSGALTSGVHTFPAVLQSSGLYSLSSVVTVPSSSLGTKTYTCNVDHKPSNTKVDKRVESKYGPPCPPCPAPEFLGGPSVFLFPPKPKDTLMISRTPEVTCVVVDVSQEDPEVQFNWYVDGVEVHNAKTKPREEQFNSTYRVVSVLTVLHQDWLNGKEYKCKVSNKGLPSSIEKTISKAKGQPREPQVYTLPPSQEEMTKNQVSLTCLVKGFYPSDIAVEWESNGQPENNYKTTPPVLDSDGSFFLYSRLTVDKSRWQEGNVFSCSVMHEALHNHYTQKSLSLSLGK
light: B1 light with F90Y
notes: Humanized, human IgG4 / kappa
B6: hz72C1-1.3 (antibody, human IgG4 S228P, kappa)
heavy: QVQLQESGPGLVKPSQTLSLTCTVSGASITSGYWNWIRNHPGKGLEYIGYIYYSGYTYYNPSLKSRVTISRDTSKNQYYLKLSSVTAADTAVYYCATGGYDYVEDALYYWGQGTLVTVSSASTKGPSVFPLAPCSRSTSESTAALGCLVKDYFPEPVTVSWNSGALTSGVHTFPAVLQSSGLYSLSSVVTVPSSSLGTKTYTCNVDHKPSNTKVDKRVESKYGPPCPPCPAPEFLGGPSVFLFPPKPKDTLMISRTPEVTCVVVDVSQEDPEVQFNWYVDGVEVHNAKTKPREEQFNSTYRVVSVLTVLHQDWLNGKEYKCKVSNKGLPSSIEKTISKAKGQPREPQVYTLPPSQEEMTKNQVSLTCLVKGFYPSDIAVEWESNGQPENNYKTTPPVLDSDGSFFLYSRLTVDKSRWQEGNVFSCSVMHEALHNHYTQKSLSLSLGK
light: B1 light
notes: Humanized, human IgG4 / kappa
B7: hz84C4-1.1 (antibody, human IgG4 S228P, kappa, V domains shown)
VH: QVQLVQSGAEVKKPGASVKVSCKASGYFFTSYWMNWVRQAPGQGLEWMGMIHPYDSETRYAQKFQGRVTMTVDKSTSTVYMELSSLRSEDTAVYYCASSTTAFAYWGQGTLVTVSS
VL: DIQMTQSPSSLSASVGDRVTITCRASQDIGNALNWYQQKPGKAPKRLIYATSSLDPGVPSRFSGSRSGTDFTLTISSLQPEDFATYYCLQYASSPYTFGQGTKVEIKR
notes: Humanized, human IgG4 / kappa
B8: hz84C4-2.1 (antibody, human IgG4 S228P, kappa, V domains shown)
VH: B7 VH
VL: B7 VL with Y36L, F71Y
notes: Humanized, human IgG4 / kappa
B9: hz84C4-2.2 (antibody, human IgG4 S228P, kappa, V domains shown)
VH: B7 VH with M50Y
VL: B7 VL with Y36L, F71Y
notes: Humanized, human IgG4 / kappa
B10: hz84C4-1.2 (antibody, human IgG4 S228P, kappa, V domains shown)
VH: B7 VH with M50Y
VL: B7 VL
notes: Humanized, human IgG4 / kappa
B11: hz84C4-1.3 (antibody, human IgG4 S228P, kappa, V domains shown)
VH: B7 VH with H52Y
VL: B7 VL
notes: Humanized, human IgG4 / kappa
B12: hz84C4-1.4 (antibody, human IgG4 S228P, kappa, V domains shown)
VH: B7 VH with F28Y, Y60L, Q65K
VL: B7 VL
notes: Humanized, human IgG4 / kappa
B13: hz84C4-1.5 (antibody, human IgG4 S228P, kappa, V domains shown)
VH: B7 VH with A24V, R38N, Y60L, Q65K
VL: B7 VL
notes: Humanized, human IgG4 / kappa

target: T1, human IL-36R overexpressed on 293T-hIL36R-NFκB cells (human, UniProt Q9HB29 20-575); test: cell-based or functional assay
T1 sequence: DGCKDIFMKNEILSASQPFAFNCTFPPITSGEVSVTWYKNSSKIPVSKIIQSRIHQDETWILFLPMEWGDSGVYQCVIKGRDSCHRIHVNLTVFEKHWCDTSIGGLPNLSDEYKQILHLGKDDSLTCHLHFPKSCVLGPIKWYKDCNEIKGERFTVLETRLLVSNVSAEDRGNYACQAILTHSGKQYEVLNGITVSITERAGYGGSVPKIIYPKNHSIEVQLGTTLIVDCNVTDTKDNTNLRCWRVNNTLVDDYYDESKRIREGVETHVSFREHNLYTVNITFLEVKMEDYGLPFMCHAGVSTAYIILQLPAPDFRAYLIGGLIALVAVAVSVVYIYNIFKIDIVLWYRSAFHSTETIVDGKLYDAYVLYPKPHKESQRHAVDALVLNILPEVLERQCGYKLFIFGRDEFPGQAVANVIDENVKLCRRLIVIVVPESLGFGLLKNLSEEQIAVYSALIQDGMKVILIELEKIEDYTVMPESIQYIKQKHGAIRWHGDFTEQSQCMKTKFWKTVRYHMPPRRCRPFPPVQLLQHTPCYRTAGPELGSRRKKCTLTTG

Binder	IC50 (M); hIL36α; NFκB-luciferase	IC50 (M); hIL36αβγ; NFκB-luciferase	IC50 (M); hIL36β; NFκB-luciferase	IC50 (M); hIL36γ; NFκB-luciferase	Maximum inhibition rate %; hIL36α; NFκB-luciferase	Maximum inhibition rate %; hIL36αβγ; NFκB-luciferase	Maximum inhibition rate %; hIL36β; NFκB-luciferase	Maximum inhibition rate %; hIL36γ; NFκB-luciferase
B1	1.04e-08 M	~4.15e-08 M	5.07e-09 M	2.18e-08 M	101%	86.7%	96.9%	98.4%
B2	1.61e-08 M	~1.39e-08 M	2.93e-09 M	2.94e-08 M	90.8%	66.3%	83.7%	89%
B3	9.56e-09 M	5.27e-08 M	3.07e-09 M	2.82e-08 M	99.6%	109%	94.6%	98.1%
B4	9.83e-09 M	6.62e-08 M	5.08e-09 M	3.72e-08 M	87.9%	70.5%	92.3%	85.4%
B5	1.61e-08 M	~4.44e-08 M	4.66e-09 M	3.68e-08 M	92%	77.9%	94.7%	87.9%
B6	6.82e-09 M	4.03e-08 M	3.88e-09 M	1.88e-08 M	98.7%	90.1%	96.7%	101%

target: T2, IL-36R naturally expressed on OVCAR8 cells and on normal human epidermal keratinocytes (NHK cells) (human, UniProt Q9HB29 20-575); test: cell-based or functional assay
T2 sequence (looked up): T1 sequence

Binder	IC50 (M); hIL36α; IL-8 production	IC50 (M); hIL36αβγ; IL-8 production	IC50 (M); hIL36β; IL-8 production	IC50 (M); hIL36γ; IL-8 production	Maximum inhibition rate %; hIL36α; IL-8 production	Maximum inhibition rate %; hIL36αβγ; IL-8 production	Maximum inhibition rate %; hIL36β; IL-8 production	Maximum inhibition rate %; hIL36γ; IL-8 production
B7	6.38e-12 M	6.51e-12 M	7.61e-12 M	4.77e-12 M	99.7%	99.9%	99.3%	99.6%
B8	1.09e-11 M	3.66e-12 M	5.7e-12 M	6.45e-12 M	99.9%	99.9%	99.3%	99.6%
B9	1.19e-11 M	1.31e-11 M	8.59e-12 M	8.61e-12 M	99.2%	99.2%	98.5%	98.7%
B10	8.5e-12 M	7.75e-12 M	1.6e-12 M	8.99e-12 M	99.1%	99.2%	98.9%	99.5%
B11		5.33e-12 M		~6.46e-12 M	20.6%	44.2%	21.8%	59.5%
B12	1.42e-11 M	1.12e-11 M	1.46e-11 M	7.75e-12 M	99.5%	98.9%	98.5%	99.4%
B13	8.48e-12 M	7.24e-12 M	1.06e-11 M	5.29e-12 M	99.5%	99.3%	99.2%	99.6%

target: T1, human IL-36R overexpressed on …; test: FACS on 293T-hIL36R-NFκB cells, ratio of MFI to background MFI
Method: After the cells was washed with PBS, the cells were resuspended with 100 μL of PBS and then the fluorescence signal was detected using a flow cytometer (BD, Accuri C6). […] The ratio was the ratio of mean fluorescence intensity (MFI) of the experimental group/the background MFI, and the resulting data were analyzed using GraphPad Prism.
Affinity, binding and blocking assays for humanized antibodies hz72C1-1.1, hz72C1-1.2, hz72C1-1.3, hz72C1-2.1, hz72C1-2.2 and hz72C1-2.3 as well as hz84C4-1.1, hz84C4-1.2, hz84C4-1.3, hz84C4-1.4, hz84C4-1.5, hz84C4-2.1, hz84C4-2.2, hz84C4-2.3, hz84C4-2.4 and hz84C4-2.5 were performed according to the methods of Example 4, Example 5. Example 6, Example 7 and Example 8.

Binder	EC50
B7	~5.28 nM
B8	~5.22 nM
B9	~5.23 nM
B10	6 nM
B11	18.2 nM
B12	5.75 nM
B13	~5.1 nM
